Experimental data: patent US20070099830

Tests used:
[1] = target: bovine recombinant glutamate dehydrogenase, P00366
[2] = target: histone 2A protein

bovine recombinant glutamate dehydrogenase, P00366, sequence (P00366 58-558): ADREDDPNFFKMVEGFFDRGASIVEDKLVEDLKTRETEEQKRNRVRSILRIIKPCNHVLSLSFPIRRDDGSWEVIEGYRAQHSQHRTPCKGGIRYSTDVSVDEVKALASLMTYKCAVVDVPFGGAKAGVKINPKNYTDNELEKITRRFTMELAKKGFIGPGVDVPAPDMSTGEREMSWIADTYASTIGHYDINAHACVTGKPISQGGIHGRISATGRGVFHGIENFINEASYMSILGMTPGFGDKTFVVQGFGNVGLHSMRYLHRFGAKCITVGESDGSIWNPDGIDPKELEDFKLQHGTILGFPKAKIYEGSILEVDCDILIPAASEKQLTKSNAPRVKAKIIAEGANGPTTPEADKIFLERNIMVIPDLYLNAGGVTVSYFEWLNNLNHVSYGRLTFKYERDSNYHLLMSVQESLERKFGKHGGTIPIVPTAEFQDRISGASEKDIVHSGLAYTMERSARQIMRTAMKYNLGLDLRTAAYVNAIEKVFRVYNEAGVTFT

B1: human Sirt4 with a C-terminal FLAG (protein)
chain: IGLFVPASPPLDPEKVKELQRFITLSKRLLVMTGAGISTESGIPDYRSEKVGLYARTDRRPIQHGDFVRSAPIRQRYWARNFVGWPQFSSHQPNPAHWALSTWEKLGKLYWLVTQNVDALHTKAGSRRLTELHGCMDRVLCLDCGEQTPRGVLQERFQVLNPTWSAEAHGLAPDGDVFLSEEQVRSFQVPTCVQCGGHLKPDVVFFGDTVNPDKVDFVHKRVKEADSLLVVGSSLQVYSGYRFILTAWEKKLPIAILNIGPTRSDDLACLKLNSRCGELLPLIDPC
- glutamate dehydrogenase activity (disappearance of NADH, A340) after one hour with Sirt4 and NAD [1]: Sirt4, but not the buffer control, significantly reduced the enzymatic activity of glutamate dehydrogenase
- mass spectroscopy of histone 2A after incubation with Sirt4 and NAD [2]: Sirt4 transferred an approximately 500 Dalton moiety to Histone 2A
